Target: GPI-anchored urokinase receptor (uPAR) on U937 cells (human (endogenous in U937)) (UniProt Q03405)
Assay: radioligand binding

UniProt Q03405, sequence (Q03405 23-305): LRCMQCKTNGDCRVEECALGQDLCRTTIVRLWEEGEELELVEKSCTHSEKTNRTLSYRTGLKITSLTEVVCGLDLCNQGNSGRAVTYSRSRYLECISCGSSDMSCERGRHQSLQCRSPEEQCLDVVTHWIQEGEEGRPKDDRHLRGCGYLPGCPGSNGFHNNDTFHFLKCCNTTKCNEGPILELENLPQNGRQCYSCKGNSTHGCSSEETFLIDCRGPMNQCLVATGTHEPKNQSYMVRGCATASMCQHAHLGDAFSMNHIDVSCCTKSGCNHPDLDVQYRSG

Row | Substance | IC50 [nM]
1 | histidine-tagged wild-type pro-uPA (enzyme) | 0.4
2 | histidine-tagged pro-uPA with Ser138 and Ser303 replaced by Glu (enzyme) | 0.4
3 | histidine-tagged pro-uPA with Ser138 replaced by Glu (enzyme) | 0.4
4 | human urinary uPA (enzyme) | 0.4

— PMC2139889
